For the assay, the target named is Polyspecificity reagent (PSR): biotinylated soluble membrane proteins of CHO cells. Put plainly: flow cytometry, biotinylated PSR on IgG-presenting yeast.

Polyspecificity Reagent (PSR) Score (0-1) data for ten molecules are collected here from patent publication US20220306733A1.

B1: anti-TIGIT antibody clone 26486 (antibody, V domains shown)
VH: QVQLQESGPGLVKPSETLSLTCAVSGYSISSGYYWAWIRQPPGKGLEWIGSIYHSGSTYYNPSLKSRVTISVDTSKNQFSLKLSSVTAADTAVYYCAIEGANYYDFGYVAFDIWGQGTMVTVSS
VL: EIVMTQSPATLSVSPGERATLSCRASQSVSSNLAWYQQKPGQAPRLLIYGASTRATGIPARFSGSGSGTEFTLTISSLQSEDFAVYYCQQSPPWPRTFGGGTKVEIK
For B1, the Polyspecificity Reagent (PSR) Score (0-1) stood at 0 score 0-1.

B2: anti-TIGIT antibody clone 29499 (antibody, V domains shown)
VH: QLQLQESGPGLVKPSETLSLTCTVSGGSISSSRYYWAWIRQPPGKGLEWIGSIGTSGSTYYNPSLKSRVTISVDTSKNQFSLKLSSVTATDTAVYYCAIEGANFRDFGYVAFDIWGQGTMVTVSS
VL: EIVMTQSPATLSVSPGERATLSCRASQSVSSNLAWYQQKPGQAPRLLIYGASTRATGIPARFSGSGSGTEFTLTISSLQSEDFAVYYCQQSPPWPRTFGGGTKVEIK
B2 showed a Polyspecificity Reagent (PSR) Score (0-1) of 0.1 score 0-1.

B3: anti-TIGIT antibody clone 32931 (antibody, V domains shown)
VH: QLQLQESGPGLVKPSETLSLTCTVSGGSISSGSYYLAWIRQPPGKGLEWIGSIFRSGSTYYNPSLESRVTISVDTSKNQFSLKLSSVTAADTAVYYCAIEGANFKDFGYVAFDIWGQGTTVTVSS
VL: EIVMTQSPATLSVSPGERATLSCRASKSVSSNLAWYQQKPGQAPRLLIYFASTRATGIPARFSGSGSGTEFTLTISSLQSEDFAVYYCQQTSPWPRTFGGGTKVEIK
Molecule B3 returned a Polyspecificity Reagent (PSR) Score (0-1) of 0 score 0-1.

B4: anti-TIGIT antibody clone 29494 (antibody, V domains shown)
VH: QVQLQESGPGLVKPSETLSLTCTVSGGSISSGSYYLAWIRQPPGKGLEWIGSIFRSGSTYYNPSLESRVTISVDTSKNQFSLKLSSVTAADTAVYYCAIEGANFKDFGYVAFDIWGQGTMVTVSS
VL: EIVMTQSPATLSVSPGERATLSCRASQSVSSNLAWYQQKPGQAPRLLIYGASTRATGIPARFSGSGSGTEFTLTISSLQSEDFAVYYCQQSPPWPRTFGGGTKVEIK
Take B4: the Polyspecificity Reagent (PSR) Score (0-1) was found to be 0 score 0-1.

B5: anti-TIGIT antibody clone 31288 (antibody, V domains shown)
VH: QLQLQESGPGLVKPSETLSLTCTVSGGSISSGSYYLAWIRQPPGKGLEWIGSIFRSGSTYYNPSLESRVTISVDTSKNQFSLKLSSVTAADTAVYYCAIEGANFKDFGYVAFDIWGQGTTVTVSS
VL: EIVMTQSPATLSVSPGERATLSCRASQSVSSNLAWYQQKPGQAPRLLIYGASTRATGIPARFSGSGSGTEFTLTISSLQSEDFAVYYCQQSPPWPRTFGGGTKVEIK
B5 yielded a Polyspecificity Reagent (PSR) Score (0-1) of 0 score 0-1.

B6: anti-TIGIT antibody clone 26493 (antibody, V domains shown)
VH: EVQLVESGGGLVQPGRSLRLSCAASGFTFGDYAMHWVRQAPGKGLEWVSGITWNSGSIGYADSVKGRFTISRDNAKNSLYLQMNSLRAEDTALYYCAKPVPKSRGLDVWGQGTMVTVSS
VL: DIQLTQSPSSVSASVGDRVTITCRASQGISSWLAWYQQKPGKAPKLLIYGASSLQSGVPSRFSGSGSGTDFTLTISSLQPEDFATYYCQQAFYLPWTFGGGTKVEIK
On to B6, for which the Polyspecificity Reagent (PSR) Score (0-1) amounted to 0 score 0-1.

B7: anti-TIGIT antibody clone 29527 (antibody, V domains shown)
VH: QVQLVESGGGVVQPGRSLRLSCAASGFTFSSSYMHWVRQAPGKGLEWVAVIGADGSNKYYADSVEGRFTISRDNSKNTLYLQMNSLRAEDTALYYCAKPVPRRRGLDVWGQGTMVTVSS
VL: DIQLTQSPSSVSASVGDRVTITCRASQGISSWLAWYQQKPGKAPKLLIYGASSLQSGVPSRFSGSGSGTDFTLTISSLQPEDFATYYCQQAFYLPWTFGGGTKVEIK
B7 returned a Polyspecificity Reagent (PSR) Score (0-1) of 0.12 score 0-1.

B8: anti-TIGIT antibody clone 29520 (antibody, V domains shown)
VH: QVQLVESGGGLVQPGRSLRLSCAASGFTFRDYAMHWVRQAPGKGLEWVSGITWNSGLIGYADSVKGRFTISRDNAKNSLYLQMNSLRAEDTALYYCAKPVPRLRGLDVWGQGTMVTVSS
VL: DIQLTQSPSSVSASVGDRVTITCRASQGISSWLAWYQQKPGKAPKLLIYGASSLQSGVPSRFSGSGSGTDFTLTISSLQPEDFATYYCQQAFYLPWTFGGGTKVEIK
For B8, the Polyspecificity Reagent (PSR) Score (0-1) was 0.32 score 0-1.

B9: anti-TIGIT antibody clone 29523 (antibody, V domains shown)
VH: EVQLVESGGGVVQPGRSLRLSCAASGFTFGSYYMHWVRQAPGKGLEWVAVIWPDGSNKLYADSVKGRFTISRDNSKNTLYLQMNSLRAEDTALYYCAKPVPKSRALDVWGQGTMVTVSS
VL: DIQLTQSPSSVSASVGDRVTITCRASQGISSWLAWYQQKPGKAPKLLIYGASSLQSGVPSRFSGSGSGTDFTLTISSLQPEDFATYYCQQAFYLPWTFGGGTKVEIK
Regarding B9, the Polyspecificity Reagent (PSR) Score (0-1) was 0.12 score 0-1.

B10: anti-TIGIT antibody clone 29513 (antibody, V domains shown)
VH: QVQLVQSGAEVKKPGSSVKVSCKASGGTFQNYAISWVRQAPGQGLEWMGVIVPIFGTANYAQKFQGRVTVTADESTSTAYMELSSLRSEDTAVYYCARLHLGQKAYYGMDVWGQGTTVTVSS
VL: DIQMTQSPSSLSASVGDRVTITCRASQSISSYLNWYQQKPGKAPKLLIYAASSLQSGVPSRFSGSGSGTDFTLTISSLQPEDFATYYCQQRYVFPPTFGGGTKVEIK
With B10, the Polyspecificity Reagent (PSR) Score (0-1) is 0.01 score 0-1.
